Data taken from patent publication US20140005125A1 (Molecular Partners, published 2014).
Substitutions are numbered along the chain they refer to.

B1: DARPin #52 (designed binder)
chain: MRGSHHHHHHGSDLGKKLLEAARAGQDDEVRILMANGADVNAQDLNGQTPLHLAADIGHLEIVEVLLKHGADVNAQDYAGSTPLRLAAWAGHLEIVEVLLKNGADVNANDYFGYTPLHLAAYFGHLEIVDVLLKHGADVNAQDKFGKTPADIAADNGHEDIAEVLQKLN
B2: DARPin #47 (designed binder)
chain: MRGSHHHHHHGSDLGKKLLEAARAGQDDEVRILLKAGADVNAKDKSGHTPLHLAAYSGHLEIVEVLLKAGADVNAKDQEGTTPLHFAASVGHLEIVEVLLKAGADVNAQDHYGATPADLAALIGHEDIAEVLQKLN
B3: DARPin #46 (designed binder)
chain: B2 chain with L34M, K35A, A36N
B4: DARPin #45 (designed binder)
chain: B2 chain with I32E
B5: DARPin #57 (designed binder)
chain: MRGSHHHHHHGSDLGKKLLEAARAGQDDEVRILLKAGADVNAKDLNGQTPLHLAADIGHLEIVEVLLKAGADVNAKDYAGSTPLRLAAWAGHLEIVEVLLKAGADVNAKDYFGYTPLHLAAYFGHLEIVEVLLKAGADVNAQDKSGKTPADLAADAGHEDIAEVLQKLN
B6: DARPin #58 (designed binder)
chain: B5 chain with I32E
B7: DARPin #51 (designed binder)
chain: MRGSHHHHHHGSDLGKKLLEAARAGQDDEVRILMANGADVNAKDLNGQTPLHLAADIGHLEIVEVLLKAGADVNAKDYAGSTPLRLAAWAGHLEIVEVLLKAGADVNAKDYFGYTPLHLAAYFGHLEIVEVLLKAGADVNAQDKFGKTAFDISIDNGNEDLAEILQKLN
B8: DARPin #54 (designed binder)
chain: B5 chain with L34M, K35A, A36N
B9: DARPin #56 (designed binder)
chain: B5 chain with G15D, S145F, L152I, A156N
B10: DARPin #53 (designed binder)
chain: B5 chain with G15D, L34M, K35A, A36N, S145F, L152I, A156N
B11: DARPin #55 (designed binder)
chain: B7 chain with M34L, A35K, N36A
B12: DARPin #29 (designed binder)
chain: MRGSHHHHHHGSDLGKKLLEAARAGQDDEVRILLKAGADVNAKDEEGTTPLHYAAVWGHLEIVEVLLKAGADVNAQDIYGATPADLAALVGHEDIAEVLQKLN
B13: DARPin #31 (designed binder)
chain: B12 chain with I32E, W57F
B14: DARPin #25 (designed binder)
chain: B12 chain with L34M, K35A, A36N, V98I
B15: DARPin #32 (designed binder)
chain: B12 chain with K16H, E20Q, R23K, A24H, K35A, E45D, I78A, L89F, V90L

Experiments:
[1] = target: T1, Recombinant human PDGF-BB (human, UniProt P01127 82-190); assay: receptor competition ELISA: DARPin preincubated with PDGF-BB, free PDGF-BB captured on coated PDGFRbeta/Fc; mean IC50
T1 construct: For SPR it was chemically biotinylated on primary amines and captured on neutravidin; also called PDGF-BB (human); Reliatech 200-055
T1 sequence (P01127 82-190 limits assumed): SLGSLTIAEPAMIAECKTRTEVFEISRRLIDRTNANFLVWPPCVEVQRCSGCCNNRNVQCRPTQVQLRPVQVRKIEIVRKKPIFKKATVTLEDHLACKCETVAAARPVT
Protocol: The potency of PEGylated anti-PDGF-BB DARPins to inhibit the binding of human PDGF-BB to its receptor PDGFRbeta was determined in a in a receptor competition ELISA (based on PDGF-BB Quantikine, R&D Systems). PDGFRbeta/Fc chimera has been precoated on a microplate. The DARPins were preincubated in assay diluent from the PDGF-BB Quantikine kit (R&D Systems) with a defined amount of PDGF-BB and incubated at room temperature for 2 hours with shaking at 750 rpm. These preincubation mixtures were then transferred into the precoated wells and any PDGF-BB that is not blocked by the DARPins was bound by the immobilized receptor. After washing away any unbound substances, a horse radish peroxidase-linked polyclonal antibody specific for PDGF-BB was added to the wells. Following a wash to remove any unbound antibody-enzyme reagent, a substrate solution was added to the wells and color was developing in proportion to the amount of PDGF-BB bound. The color development was stopped and the intensity of the color was measured at […]. Example titration curves are given for a set of DARPins in FIG. 2. IC₅₀ values were calculated from such titration curves obtained as described above using Graph Pad Prism software and standard procedures known to the person skilled in the art.

[2] = target: T1, Recombinant human PDGF-BB; assay: SPR (ProteOn), biotinylated PDGF-BB on neutravidin chip, DARPin injected; Kd from on- and off-rates
Protocol: (§1) Biotinylated PDGF-BB molecules from human and mouse were immobilized in a flow cell through binding to coated […] and the interaction with various selected DARPins was analyzed.
(§2) SPR was measured using a ProteOn instrument (BioRad) and measurement was performed according standard procedures known to the person skilled in the art. The running buffer was PBS, pH 7.4, containing 0.005% Tween 20®. Neutravidin was covalently immobilized on a GLC chip (BioRad) to a level of about 8000 resonance units (RU). Immobilization of PDGF-BB on the neutravidin coated chip was then performed. The interaction of DARPin PDGF-BB was then measured by injecting 100 μl running buffer (PBS containing 0.005% Tween®) containing serial dilutions of DARPins of concentration of […] (on-rate measurement), followed by a running buffer flow for between 10 minutes and up to 3 hours at a constant flow rate of 30 μl/min (off-rate measurement). The signals (i.e. resonance unit (RU) values) of an uncoated reference cell and a reference injection (i.e. injection of running buffer only) were subtracted from the RU traces obtained after injection of […] (double-referencing). From the SRP traces obtained from the on-rate and off-rate measurements the on- and off-rate of the corresponding DARPin PDGF-BB interaction can be determined.
(§3) Dissociation constants (Kd) were calculated from the estimated on- and off-rates using standard procedures known to the person skilled in the art.

[3] = target: T2, Recombinant murine PDGF-BB (mouse, UniProt P31240 82-190, limits assumed); assay: as above
T2 construct: For SPR chemically biotinylated on primary amines and captured on neutravidin; also called mouse PDGF-BB; PDGF-BB (mouse)
T2 sequence (P31240 82-190 limits assumed): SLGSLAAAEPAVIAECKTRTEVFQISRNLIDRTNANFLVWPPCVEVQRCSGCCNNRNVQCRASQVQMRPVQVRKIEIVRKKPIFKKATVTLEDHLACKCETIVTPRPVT
Protocol: as §1, §2, §3

Binder	IC50 [1] [nM]	Kd [2] [nM]	Kd [3] [nM]
B1	0.068		
B2	0.14	0.0937	
B3	0.15	0.112	
B4	0.16	0.108	
B5	0.204	0.123	
B6	0.47	0.257	
B7	0.008	0.121	
B8	0.21	0.245	
B9	0.17	0.15	
B10	0.036	0.128	
B11	0.014	0.0555	
B12	0.015	0.105	
B13	0.48	0.109	
B14		0.0147	0.0128
B15		0.0638	0.0834
